Measured values as given in the MegaScale stability set (Tsuboyama et al. 2023).

B1: EEHEE_rd4_0469 (parent)
chain: ITIHVNGVTYHFDNPEEAEKFAQKMAKTYQLKMEIHNGEFHME

Variants of: B1
Test: folding stability dG (cDNA display proteolysis); higher = more stable
Settings: PBS, room temperature

Folding stability dG [kcal/mol] of substitutions, site by site:
N37: Q 0.88 | M 1.03 | I 1.1 | Y 1.14 | R 0.716 | G 1.02 | H 1.11 | V 0.9 | L 1.09 | T 0.767 | P 0.635 | K 0.81 | S 0.831 | W 1.17
H41: N 0.659 | P 0.588 | K 0.756 | R 0.848 | W 1.57 | S 0.86 | M 0.892 | V 1.11 | I 1.08 | L 0.929 | Q 0.682 | G 0.628 | Y 1.69 | C 1.72 | F 1.55 | E 0.697 | D 0.697 | T 0.857 | A 0.623
M42: Y 1.02 | R 0.687 | G 0.673 | T 0.657 | K 0.711 | V 0.797 | S 0.715 | A 0.838 | E 0.615 | N 0.637 | I 0.961 | D 0.727 | F 1.24 | W 0.913 | H 0.709 | L 1.3 | P 0.756 | Q 0.661
G38: S 0.699 | E 0.77 | D 0.717 | R 0.609 | P 0.616 | I 0.832 | H 0.885 | L 0.917 | V 0.627 | K 0.72 | C 2.21 | F 0.963 | A 0.774 | W 0.914 | N 0.855 | M 0.798 | Y 0.871 | Q 0.664 | T 0.717
E39: N 0.81 | S 0.882 | T 0.836 | D 0.969 | H 1.16 | Q 1.11 | C 1.69 | W 0.978 | K 0.828 | Y 0.934 | I 1.17 | P 0.802 | L 0.728 | G 0.755 | F 0.886 | R 0.762 | M 0.924 | A 1.02 | V 1.07
E43: C 2.31 | G 1.14 | L 1.61 | H 1.46 | P 0.817 | T 1.72 | A 1.2 | S 1.34 | M 1.69 | R 1.56 | F 2.01 | N 1.17 | Y 1.94 | D 0.889 | K 1.5 | W 1.82 | I 2.02 | Q 1.21 | V 2.36
F40: R 0.623 | A 0.744 | Q 0.754 | T 0.801 | Y 1.31 | V 1.19 | N 0.711 | G 0.641 | W 1.76 | M 1.23 | K 0.661 | E 0.603 | C 1.79 | S 0.704 | I 1.6 | D 0.578 | H 0.761 | L 1.37 | P 0.69
